Laboratory results published in the RNAGym collection of RNA variant scans (doi:10.1093/molbev/msab373).

B1: Azoarcus group I ribozyme (parent)
chain: GUGCCUUGCGCCGGGAAACCACGCAAGGGAUGGUGUCAAAUUCGGCGAAACCUAAGCGCCCGCCCGGGCGUAUGGCAACGCCGAGCCAAGCUUCGGCGCCUGCGCCGAUGAAGGUGUAGAGACUAGACGGCACCCACCUAAGGCAAACGCUAUGGUGAAGGCAUAGUCCAGGGAGUGGCGAAAGUCACACAAACCGG

Variants of: B1
Test: reverse-splicing fitness (ratio to wild type); higher = more active; in vitro selection; Mg2+ level not given
Method in brief: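 An in vitro group I ribozyme library with randomized positions was T7-transcribed and gel-purified. In triplicate, 10 pmol RNA in EPPS pH 7.5 was reacted with 50 pmoles of a 30-nt RNA substrate for 1 h at 37 °C across several added MgCl2 levels (1–48 mM), then stopped with EDTA. Products were reverse transcribed from a substrate-complementary primer, PCR-amplified and sequenced (HiSeq 4000). Fitness is a variant's read proportion after selection over that before, normalised to wild type.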
GUGCCUUGCGCCGGGAAACCACGCAAGGGAUGGUGUCAAAUUCGGCGAAACCUAAGCGCCCGCCCGGGCGUAUGGCAACGCUGAGCCAAGCUUCGGCGCCUGCGCCGAUGAAGGUGUAGUGACUAGACGGCACCCACCUAAGGCCAACGAUAUGGUGAAGGCAUAGUCUAGGGAGUGGCGAAAGUCACACAAACCGG [C82U A120U A145C C150A C169U] gave a reverse-splicing fitness of 0.00232. GUGCCUUGCGCCGGGAAACCACGCAAGGGAUGGUGUCAAAUUCGGCGAAACCUAAGCGCCCGCCCGGGCGUAUGGCAACGCUGAGCCAAGCUUCGGCGCCUGCGCCGAUGAAGGUGUAGUGACUAGACGGCACCCACCUAAGGCCAACGAUAUGGUGAAGGCAUAGUCGAGGGAGUGGCGAAAGUCACACAAACCGG [C82U A120U A145C C150A C169G] gave a reverse-splicing fitness of 0.00203. Work on GUGCCUUGCGCCGGGAAACCACGCAAGGGAUGGUGUCAAAUUCGGCGAAACCUAAGCGCCCGCCCGGGCGUAUGGCAACGCUGAGCCAAGCUUCGGCGCCUGCGCCGAUGAAGGUGUAGUGACUAGACGGCACCCACCUAAGGCCAACGAUAUGGUGAAGGCAUAGUCAAGGGAGUGGCGAAAGUCACACAAACCGG [C82U A120U A145C C150A C169A] yielded a reverse-splicing fitness of 0.00144. With GUGCCUUGCGCCGGGAAACCACGCAAGGGAUGGUGUCAAAUUCGGCGAAACCUAAGCGCCCGCCCGGGCGUAUGGCAACGCUGAGCCAAGCUUCGGCGCCUGCGCCGAUGAAGGUGUAGUGACUAGACGGCACCCACCUAAGGCCAACGCUAUGGUGAAGGCAUAGUCCAGGGAGUGGCGAAAGUCACACAAACCGG [C82U A120U A145C] the reverse-splicing fitness was 0.153. GUGCCUUGCGCCGGGAAACCACGCAAGGGAUGGUGUCAAAUUCGGCGAAACCUAAGCGCCCGCCCGGGCGUAUGGCAACGCUGAGCCAAGCUUCGGCGCCUGCGCCGAUGAAGGUGUAGGGACUAGACGGCACCCACCUAAGGCAAACGCUAUGGUGAAGGCAUAGUCGAGGGAGGGGCGAAAGUCACACAAACCGG [C82U A120G C169G U176G] gave a reverse-splicing fitness of 0.00332. Variant GUGCCUUGCGCCGGGAAACCACGCAAGGGAUGGUGUCAAAUUCGGCGAAACCUAAGCGCCCGCCCGGGCGUAUGGCAACGCUGAGCCAAGCUUCGGCGCCUGCGCCGAUGAAGGUGUAGGGACUAGACGGCACCCACCUAAGGCAAACGCUAUGGUGAAGGCAUAGUCGAGGGAGAGGCGAAAGUCACACAAACCGG [C82U A120G C169G U176A] has a reverse-splicing fitness of 0.0215. GUGCCUUGCGCCGGGAAACCACGCAAGGGAUGGUGUCAAAUUCGGCGAAACCUAAGCGCCCGCCCGGGCGUAUGGCAACGCUGAGCCAAGCUUCGGCGCCUGCGCCGAUGAAGGUGUAGGGACUAGACGGCACCCACCUAAGGCAAACGCUAUGGUGAAGGCAUAGUCGAGGGAGCGGCGAAAGUCACACAAACCGG [C82U A120G C169G U176C] showed a reverse-splicing fitness of 0.0246. In the case of GUGCCUUGCGCCGGGAAACCACGCAAGGGAUGGUGUCAAAUUCGGCGAAACCUAAGCGCCCGCCCGGGCGUAUGGCAACGCUGAGCCAAGCUUCGGCGCCUGCGCCGAUGAAGGUGUAGUGACUAGACGGCACCCACCUAAGGCCAACGAUAUGGUGAAGGCAUAGUCGAGGGAGAGGCGAAAGUCACACAAACCGG [C82U A120U A145C C150A C169G U176A], the reverse-splicing fitness is reported as 0.00223. Variant GUGCCUUGCGCCGGGAAACCACGCAAGGGAUGGUGUCAAAUUCGGCGAAACCUAAGCGCCCGCCCGGGCGUAUGGCAACGCUGAGCCAAGCUUCGGCGCCUGCGCCGAUGAAGGUGUAGUGACUAGACGGCACCCACCUAAGGCCAACGAUAUGGUGAAGGCAUAGUCGAGGGAGCGGCGAAAGUCACACAAACCGG [C82U A120U A145C C150A C169G U176C] has a reverse-splicing fitness of 0.00196. In the case of GUGCCUUGCGCCGGGAAACCACGCAAGGGAUGGUGUCAAAUUCGGCGAAACCUAAGCGCCCGCCCGGGCGUAUGGCAACGCUGAGCCAAGCUUCGGCGCCUGCGCCGAUGAAGGUGUAGUGACUAGACGGCACCCACCUAAGGCCAACGAUAUGGUGAAGGCAUAGUCGAGGGAGGGGCGAAAGUCACACAAACCGG [C82U A120U A145C C150A C169G U176G], the reverse-splicing fitness is reported as 0.00161. Variant GUGCCUUGCGCCGGGAAACCACGCAAGGGAUGGUGUCAAAUUCGGCGAAACCUAAGCGCCCGCCCGGGCGUAUGGCAACGCUGAGCCAAGCUUCGGCGCCUGCGCCGAUGAAGGUGUAGGGACUAGACGGCACCCACCUAAGGCAAACGCUAUGGUGAAGGCAUAGUCGAGGGAGUGGCGAAAGUCACACAAACCGG [C82U A120G C169G] has a reverse-splicing fitness of 0.0242. GUGCCUUGCGCCGGGAAACCACGCAAGGGAUGGUGUCAAAUUCGGCGAAACCUAAGCGCCCGCCCGGGCGUAUGGCAACGCUGAGCCAAGCUUCGGCGCCUGCGCCGAUGAAGGUGUAGGGACUAGACGGCACCCACCUAAGGCAAACGCUAUGGUGAAGGCAUAGUCUAGGGAGUGGCGAAAGUCACACAAACCGG [C82U A120G C169U] showed a reverse-splicing fitness of 0.0177. With GUGCCUUGCGCCGGGAAACCACGCAAGGGAUGGUGUCAAAUUCGGCGAAACCUAAGCGCCCGCCCGGGCGUAUGGCAACGCUGAGCCAAGCUUCGGCGCCUGCGCCGAUGAAGGUGUAGUGACUAGACGGCACCCACCUAAGGCCAACGAUAUGGUGAAGGCAUAGUCCAGGGAGGGGCGAAAGUCACACAAACCGG [C82U A120U A145C C150A U176G] the reverse-splicing fitness was 0.00282. Work on GUGCCUUGCGCCGGGAAACCACGCAAGGGAUGGUGUCAAAUUCGGCGAAACCUAAGCGCCCGCCCGGGCGUAUGGCAACGCUGAGCCAAGCUUCGGCGCCUGCGCCGAUGAAGGUGUAGUGACUAGACGGCACCCACCUAAGGCCAACGAUAUGGUGAAGGCAUAGUCCAGGGAGCGGCGAAAGUCACACAAACCGG [C82U A120U A145C C150A U176C] yielded a reverse-splicing fitness of 0.00532. GUGCCUUGCGCCGGGAAACCACGCAAGGGAUGGUGUCAAAUUCGGCGAAACCUAAGCGCCCGCCCGGGCGUAUGGCAACGCUGAGCCAAGCUUCGGCGCCUGCGCCGAUGAAGGUGUAGUGACUAGACGGCACCCACCUAAGGCCAACGAUAUGGUGAAGGCAUAGUCCAGGGAGAGGCGAAAGUCACACAAACCGG [C82U A120U A145C C150A U176A] gave a reverse-splicing fitness of 0.00377.
